# Patent US20260242448A1
# Key:
# [1] = molecular target: S protein of the SARS-CoV-2 BA.1 strain on pseudo-virus (SARS-CoV-2 BA.1 strain); assay: cell-based or functional assay
# [2] = molecular target: S protein of the SARS-CoV-2 BA.2.75 strain on pseudo-virus (SARS-CoV-2 BA.2.75 strain); assay: cell-based or functional assay
# [3] = molecular target: S protein of the SARS-CoV-2 BA.4/5 strains on pseudo-virus (SARS-CoV-2 BA.4/5 strain); assay: cell-based or functional assay
# [4] = molecular target: S protein of the SARS-CoV-2 BF.7 strain on pseudo-virus (SARS-CoV-2 BF.7 strain); assay: cell-based or functional assay
# [5] = molecular target: S protein of the SARS-CoV-2 BQ.1 strain on pseudo-virus (SARS-CoV-2 BQ.1 strain); assay: cell-based or functional assay
# [6] = molecular target: S protein of the SARS-CoV-2 BQ.1.1 strain on pseudo-virus (SARS-CoV-2 BQ.1.1 strain); assay: cell-based or functional assay
# [7] = molecular target: S protein of the SARS-CoV-2 Delta strain on pseudo-virus (SARS-CoV-2 Delta strain); assay: cell-based or functional assay
# [8] = molecular target: S protein of the SARS-CoV-2 XBB strain on pseudo-virus (SARS-CoV-2 XBB strain); assay: cell-based or functional assay
# [9] = molecular target: S protein of the SARS-CoV-2 XBB.1.5 strain on pseudo-virus (SARS-CoV-2 XBB.1.5 strain); assay: cell-based or functional assay
# [10] = molecular target: SARS-CoV-2 (BA.5) Spike RBD (SARS-CoV-2 BA.5 strain); assay: SPR, Biacore 8K; antibody captured on Protein A chip, RBD as analyte
# [11] = molecular target: SARS-CoV-2 (BF.7) Spike RBD (SARS-CoV-2 BF.7 strain); assay: as above
# [12] = molecular target: SARS-CoV-2 (BF.7) Spike RBD (SARS-CoV-2 BF.7 strain); assay: ELISA on plate-coated RBD (1 µg/mL), HRP anti-human Fc detection, OD450
# Chain of LY-CoV1404 (antibody) (VH): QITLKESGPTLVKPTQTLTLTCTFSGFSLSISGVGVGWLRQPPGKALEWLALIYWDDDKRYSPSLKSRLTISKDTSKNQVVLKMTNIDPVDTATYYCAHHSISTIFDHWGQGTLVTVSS
# Chain of LY-CoV1404 (antibody) (VL): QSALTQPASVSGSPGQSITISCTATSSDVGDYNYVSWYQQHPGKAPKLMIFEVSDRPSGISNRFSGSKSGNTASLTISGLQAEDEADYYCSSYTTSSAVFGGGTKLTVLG
substance,measurement,setting,value
LY-CoV1404 (antibody),Neutralization activity (IC50) against pseudo-virus,[1],1.44 ng/mL
same,Neutralization activity (IC50) against pseudo-virus,[2],25.1 ng/mL
same,Neutralization activity (IC50) against pseudo-virus,[3],1.22 ng/mL
same,Neutralization activity (IC50) against pseudo-virus,[4],2.14 ng/mL
same,Neutralization activity (IC50) against pseudo-virus,[5],> 2000 ng/mL
same,Neutralization activity (IC50) against pseudo-virus,[6],> 2000 ng/mL
same,Neutralization activity (IC50) against pseudo-virus,[7],3.05 ng/mL
same,Neutralization activity (IC50) against pseudo-virus,[8],> 2000 ng/mL
same,Neutralization activity (IC50) against pseudo-virus,[9],> 2000 ng/mL
same,Kd,[10],0.184 nM
same,koff,[10],0.000264 s⁻¹
same,kon,[10],1.44e+06 M⁻¹ s⁻¹
same,Kd,[11],0.162 nM
same,koff,[11],0.000148 s⁻¹
same,kon,[11],910000 M⁻¹ s⁻¹
same,EC50,[12],0.111 nM
